# Results reported in US20240116985A1 (published 2024).
# Starred links: 1 amine or outer side, 2 acyl side, 3 side chain; linkers in the order of their positions; H or OH if unused. Positions of bridges follow the written chain, without caps; N, C: chain ends. Non-standard residues stand in square brackets, D forms with d. Primed or numbered codes have the meaning given here. *: point of attachment. B5(10) = 2-amino-2-(pent-4-en-1-yl)hept-6-enoic acid, bis(4-pentenyl)glycine, stitching residue bearing both staples, C=CCCCC(CCCC=C)(N[*:1])C(=O)[*:2]; PyrS2(3) = (S)-3-amino-1-((pent-4-en-1-yloxy)carbonyl)pyrrolidine-3-carboxylic acid, stapling residue, C=CCCCOC(=O)N1CC[C@@](N[*:1])(C(=O)[*:2])C1; B5(5) = 2,2-bis(4-pentenyl)glycine, 2-amino-2-(pent-4-en-1-yl)hept-6-enoic acid (stitching residue), C=CCCCC(CCCC=C)(N[*:1])C(=O)[*:2]; PyrS2 = (S)-3-amino-1-((pent-4-en-1-yloxy)carbonyl)pyrrolidine-3-carboxylic acid, C=CCCCOC(=O)N1CC[C@@](N[*:1])(C(=O)[*:2])C1; Phe(2-Cl) = N[C@@H](Cc1ccccc1Cl)C(=O)O; Bta = N[C@@H](Cc1csc2ccccc12)C(=O)O; αAllylPro = C=CC[C@@]1(C(=O)O)CCCN1; tBuAla = CC(C)(C)C[C@H](N)C(=O)O; Cha = N[C@@H](CC1CCCCC1)C(=O)O; S8 = C=CCCCCCC[C@](C)(N)C(=O)O; R5 = C=CCCC[C@@](C)(N)C(=O)O; Ms = CS(=O)(=O)*
# T1: full-length beta-Catenin (Uniprot ID P35222) (Homo sapiens (Human), UniProt P35222 2-781)
# T1 construct: also called bCat; B-Catenin
# T1 sequence: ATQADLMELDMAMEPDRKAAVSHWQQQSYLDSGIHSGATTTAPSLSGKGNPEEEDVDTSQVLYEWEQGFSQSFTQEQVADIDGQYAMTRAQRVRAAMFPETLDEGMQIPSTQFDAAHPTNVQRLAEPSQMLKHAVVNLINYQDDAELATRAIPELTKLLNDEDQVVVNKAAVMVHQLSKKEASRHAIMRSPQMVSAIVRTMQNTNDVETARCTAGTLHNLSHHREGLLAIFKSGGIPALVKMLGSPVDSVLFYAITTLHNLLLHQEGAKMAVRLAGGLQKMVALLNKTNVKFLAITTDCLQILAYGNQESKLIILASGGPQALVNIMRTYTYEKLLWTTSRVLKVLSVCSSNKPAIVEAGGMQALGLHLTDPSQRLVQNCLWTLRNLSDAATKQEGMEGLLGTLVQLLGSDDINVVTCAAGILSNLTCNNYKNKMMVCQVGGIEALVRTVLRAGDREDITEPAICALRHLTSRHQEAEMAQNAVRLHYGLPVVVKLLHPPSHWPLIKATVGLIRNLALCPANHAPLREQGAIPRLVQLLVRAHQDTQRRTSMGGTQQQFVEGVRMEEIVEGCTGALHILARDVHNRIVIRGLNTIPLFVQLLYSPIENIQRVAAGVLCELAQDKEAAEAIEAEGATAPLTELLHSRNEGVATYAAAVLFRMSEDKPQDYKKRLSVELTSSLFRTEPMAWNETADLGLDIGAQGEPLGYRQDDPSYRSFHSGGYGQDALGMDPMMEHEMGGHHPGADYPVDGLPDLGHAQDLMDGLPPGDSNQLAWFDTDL
# T2: full-length beta-Catenin (Uniprot ID P35222) (Homo sapiens (Human), UniProt P35222 1-781)
# T2 construct: also called bCat
# T2 sequence: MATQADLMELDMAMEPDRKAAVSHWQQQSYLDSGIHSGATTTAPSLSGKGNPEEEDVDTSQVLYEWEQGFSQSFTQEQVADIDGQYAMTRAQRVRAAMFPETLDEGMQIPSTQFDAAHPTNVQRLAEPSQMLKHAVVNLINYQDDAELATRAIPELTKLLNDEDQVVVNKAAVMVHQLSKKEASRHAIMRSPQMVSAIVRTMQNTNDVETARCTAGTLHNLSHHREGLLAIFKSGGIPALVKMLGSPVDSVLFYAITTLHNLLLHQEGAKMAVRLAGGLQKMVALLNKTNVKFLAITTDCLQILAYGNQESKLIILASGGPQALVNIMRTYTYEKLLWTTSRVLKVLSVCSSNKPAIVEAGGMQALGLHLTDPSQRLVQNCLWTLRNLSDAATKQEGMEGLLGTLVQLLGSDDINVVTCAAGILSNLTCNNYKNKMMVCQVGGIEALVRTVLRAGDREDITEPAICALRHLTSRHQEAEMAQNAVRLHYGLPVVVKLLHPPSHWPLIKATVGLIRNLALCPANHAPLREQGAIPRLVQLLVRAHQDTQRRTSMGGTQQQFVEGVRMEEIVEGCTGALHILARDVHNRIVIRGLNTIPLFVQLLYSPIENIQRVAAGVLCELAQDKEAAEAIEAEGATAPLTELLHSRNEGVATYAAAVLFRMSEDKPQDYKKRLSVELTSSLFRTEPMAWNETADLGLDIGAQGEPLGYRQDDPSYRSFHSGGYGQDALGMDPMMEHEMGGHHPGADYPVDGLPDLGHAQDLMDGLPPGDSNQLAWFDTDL
# T3: full-length beta-Catenin (Uniprot ID P35222) (Homo sapiens (Human), UniProt P35222 2-781)
# T3 construct: The FP protocol says 'full-length beta-Catenin (Uniprot ID P35222)'; also called bCat; B-Catenin
# T3 sequence: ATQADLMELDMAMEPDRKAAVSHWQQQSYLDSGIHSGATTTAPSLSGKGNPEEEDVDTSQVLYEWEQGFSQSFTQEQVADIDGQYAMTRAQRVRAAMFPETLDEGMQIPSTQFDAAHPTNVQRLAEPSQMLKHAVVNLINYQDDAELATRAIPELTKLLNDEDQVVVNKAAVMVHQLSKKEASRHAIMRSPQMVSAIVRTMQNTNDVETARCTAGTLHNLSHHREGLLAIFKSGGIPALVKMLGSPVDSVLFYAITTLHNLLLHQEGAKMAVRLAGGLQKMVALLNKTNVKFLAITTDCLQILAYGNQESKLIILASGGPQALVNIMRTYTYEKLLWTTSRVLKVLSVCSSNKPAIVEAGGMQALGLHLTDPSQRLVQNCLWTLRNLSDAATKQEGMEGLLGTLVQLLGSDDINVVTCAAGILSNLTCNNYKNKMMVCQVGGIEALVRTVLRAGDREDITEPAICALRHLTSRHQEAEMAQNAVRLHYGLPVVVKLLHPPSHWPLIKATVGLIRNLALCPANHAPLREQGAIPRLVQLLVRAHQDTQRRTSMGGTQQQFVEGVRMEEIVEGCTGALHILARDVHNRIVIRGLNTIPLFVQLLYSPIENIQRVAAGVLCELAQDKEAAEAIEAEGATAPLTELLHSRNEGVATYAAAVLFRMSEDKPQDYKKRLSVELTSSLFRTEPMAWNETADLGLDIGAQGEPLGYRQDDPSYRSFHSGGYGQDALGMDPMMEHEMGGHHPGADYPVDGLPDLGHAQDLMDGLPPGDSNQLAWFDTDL
# T4: full-length beta-Catenin (Uniprot ID P35222) (Homo sapiens (Human), UniProt P35222 2-781)
# T4 construct: The fluorescence polarization protocol says only 'full-length'; also called bCat; B-Catenin
# T4 sequence: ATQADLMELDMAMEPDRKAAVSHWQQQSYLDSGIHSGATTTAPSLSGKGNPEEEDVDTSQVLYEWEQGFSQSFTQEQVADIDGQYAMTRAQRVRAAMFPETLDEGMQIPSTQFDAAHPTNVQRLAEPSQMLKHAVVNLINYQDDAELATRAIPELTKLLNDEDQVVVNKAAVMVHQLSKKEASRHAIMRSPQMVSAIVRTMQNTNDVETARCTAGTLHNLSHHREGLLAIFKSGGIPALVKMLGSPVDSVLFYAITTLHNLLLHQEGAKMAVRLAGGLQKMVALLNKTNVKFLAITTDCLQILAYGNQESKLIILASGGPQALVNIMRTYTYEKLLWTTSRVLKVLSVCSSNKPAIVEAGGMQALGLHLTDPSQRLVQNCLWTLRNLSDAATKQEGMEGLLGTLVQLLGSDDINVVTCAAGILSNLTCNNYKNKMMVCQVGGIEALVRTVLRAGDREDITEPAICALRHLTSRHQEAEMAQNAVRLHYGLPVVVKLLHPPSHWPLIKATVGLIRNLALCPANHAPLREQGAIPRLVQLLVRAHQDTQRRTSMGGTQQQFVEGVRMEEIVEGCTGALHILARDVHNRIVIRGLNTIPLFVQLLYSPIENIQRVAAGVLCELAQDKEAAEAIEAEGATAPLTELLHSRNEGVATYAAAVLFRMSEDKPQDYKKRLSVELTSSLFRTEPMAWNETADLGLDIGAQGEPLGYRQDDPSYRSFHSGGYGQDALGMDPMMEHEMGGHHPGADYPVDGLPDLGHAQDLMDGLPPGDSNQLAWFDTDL
# What was measured:
# [1] = target: T1, full-length beta-Catenin (Uniprot ID …); assay: fluorescence polarization competition, displacement of 5FAM-TCF4 10-53 from full-length beta-catenin
# Method: (§1) The plate was incubated protected from light for 60 minutes at 20° C. prior to read. Reads were performed on a CLARIOstar plate reader (BMG Labtech) in duplicate, and data were fitted to a 1:1 binding model with hill slope using an in-house script. All provided concentrations are final concentrations.
# [2] = target: T2, full-length beta-Catenin (Uniprot ID …); assay: fluorescence polarization competition against 5FAM-TCF4(10-53) on full-length beta-catenin
# Method: as §1
# [3] = target: T3, full-length beta-Catenin (Uniprot ID …); assay: fluorescence polarization competition; full-length beta-catenin + 5FAM-TCF4 10-53 probe
# Method: as §1
# [4] = target: T4, full-length beta-Catenin (Uniprot ID …); assay: fluorescence polarization competition; full-length beta-catenin + 5FAM-TCF4(10-53) probe; peptide titrated
# Method: as §1
binder,measurement,setting,value
"Ac-PD[tBuAla][R5]DDAAFN[PyrS2(3)][Phe(2-Cl)][Bta]Q-NH2 (staple 4-11, Stapled peptide, one staple. '2C1F' as printed (2ClF)) [I-1183]",IC50,[1],409 nM
"Ac-PD[Cha][R5]DDAAFT[PyrS2(3)][Phe(2-Cl)][Bta]S-NH2 (staple 4-11, Stapled peptide, one staple) [I-1184]",IC50,[1],176 nM
"Ac-[αAllylPro]NA[B5(10)]DTAAFL[PyrS2]F[Bta]Q-NH2 (staple 1-4, 4-11; not fully specified; printed as Ac-PL3-Asn-Ala-B5-Asp-Thr-Ala-Ala-Phe-Leu-PyrS2-Phe-BztA-Gln-NH2, Stapled peptide) [I-1286]",IC50,[2],10000 nM
"Ac-[αAllylPro]NA[B5(10)]DTAAFL[PyrS2]F[Bta]Q-NH2 (staple 1-4, 4-11; not fully specified; printed as Ac-PL3-Asn-Ala-B5-Asp-Thr-Ala-Ala-Phe-Leu-PyrS2-Phe-BztA-Gln-NH2, Stapled peptide) [I-1287]",IC50,[2],10000 nM
"Ac-[αAllylPro]DA[B5(10)]NTAAFL[PyrS2]F[Bta]Q-NH2 (staple 1-4, 4-11; not fully specified; printed as Ac-PL3-Asp-Ala-B5-Asn-Thr-Ala-Ala-Phe-Leu-PyrS2-Phe-BztA-Gln-NH2, earlier eluting HPLC peak (staple isomer composition); also called Ac-PL3-Asp-Ala-B5-Asn-Thr-Ala-Ala-Phe-Leu-PyrS2-Phe-BztA-Gln-NH2) [I-1295]",IC50,[3],10000 nM
"Ac-[αAllylPro]DA[B5(10)]NTAAFL[PyrS2]F[Bta]Q-NH2 (staple 1-4, 4-11; not fully specified; printed as Ac-PL3-Asp-Ala-B5-Asn-Thr-Ala-Ala-Phe-Leu-PyrS2-Phe-BztA-Gln-NH2, later eluting HPLC peak (staple isomer composition); also called Ac-PL3-Asp-Ala-B5-Asn-Thr-Ala-Ala-Phe-Leu-PyrS2-Phe-BztA-Gln-NH2) [I-1296]",IC50,[3],3780 nM
"Ms-[αAllylPro]DI[B5(5)]DEAAFQ[S8]F[Bta]Q-NH2 (staple 1-4, 4-11, Stapled peptide composition; also called MeSO2-PL3-Asp-Ile-B5-Asp-Glu-Ala-Ala-Phe-Gln-S8-Phe-BztA-Gln-NH2) [I-710]",EC50,[4],73 nM
"Ms-[αAllylPro]DI[B5(5)]DEAAFQ[S8]F[Bta]Q-NH2 (staple 1-4, 4-11, Stapled peptide composition; Later-eluting HPLC isomer peak (I-710 is the earlier one); also called MeSO2-PL3-Asp-Ile-B5-Asp-Glu-Ala-Ala-Phe-Gln-S8-Phe-BztA-Gln-NH2) [I-711]",EC50,[4],88 nM
